Assay results from patent publication US10450368 (DUKE UNIVERSITY, dated 2019).

Key:
SSA [1] = biological target: T1, SSA; assay: AtheNA, Ab 6.25 ug/ml
T1 construct: also called SSA (Ro)

Sm (Smith antigen) [2] = biological target: T2, Sm (Smith antigen); assay: AtheNA, Ab 6.25 ug/ml
T2 construct: Protein complex

RNP (ribonucleoprotein) [3] = biological target: T3, RNP (ribonucleoprotein); assay: AtheNA, Ab 6.25 ug/ml
T3 construct: Protein-RNA complex

Histones [4] = biological target: T4, Histones; assay: AtheNA, Ab 6.25 ug/ml
T4 construct: Mixture of proteins

Scl-70 [5] = biological target: T5, Scl-70 (UniProt P11387 1-765); assay: AtheNA, Ab 6.25 ug/ml
T5 sequence: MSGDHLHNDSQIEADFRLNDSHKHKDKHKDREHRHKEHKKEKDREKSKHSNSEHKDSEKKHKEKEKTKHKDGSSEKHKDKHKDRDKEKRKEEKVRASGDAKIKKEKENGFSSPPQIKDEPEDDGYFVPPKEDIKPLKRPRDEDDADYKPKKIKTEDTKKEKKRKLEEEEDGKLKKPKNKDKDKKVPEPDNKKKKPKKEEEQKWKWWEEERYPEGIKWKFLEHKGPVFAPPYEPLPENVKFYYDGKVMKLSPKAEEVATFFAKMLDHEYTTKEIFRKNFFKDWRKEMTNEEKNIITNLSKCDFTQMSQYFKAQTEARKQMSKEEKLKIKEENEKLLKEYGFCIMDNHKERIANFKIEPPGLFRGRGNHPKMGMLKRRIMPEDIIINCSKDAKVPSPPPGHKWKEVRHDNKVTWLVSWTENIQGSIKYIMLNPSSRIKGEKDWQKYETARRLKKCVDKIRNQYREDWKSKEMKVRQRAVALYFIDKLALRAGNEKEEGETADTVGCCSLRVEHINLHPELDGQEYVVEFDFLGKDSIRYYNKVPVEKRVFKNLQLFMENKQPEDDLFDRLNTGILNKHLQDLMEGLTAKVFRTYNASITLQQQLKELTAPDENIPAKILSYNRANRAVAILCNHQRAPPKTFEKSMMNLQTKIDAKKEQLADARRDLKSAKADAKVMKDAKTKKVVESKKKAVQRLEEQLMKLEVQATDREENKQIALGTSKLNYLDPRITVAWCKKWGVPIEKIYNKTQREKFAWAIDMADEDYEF

SSA [6] = biological target: T1, SSA; assay: AtheNA, Ab 25 ug/ml
Sm (Smith antigen) [7] = biological target: T2, Sm (Smith antigen); assay: AtheNA, Ab 25 ug/ml
RNP (ribonucleoprotein) [8] = biological target: T3, RNP (ribonucleoprotein); assay: AtheNA, Ab 25 ug/ml
Histones [9] = biological target: T4, Histones; assay: AtheNA, Ab 25 ug/ml
Scl-70 [10] = biological target: T5, Scl-70; assay: AtheNA, Ab 25 ug/ml
CH505w136.B18D8gp120 = assay: ELISA
CH505.TF mutant gp120 M6 = biological target: T6, CH505.TF mutant gp120 M6 (HIV-1); assay: ELISA
T6 construct: domain: gp120

CH505.M19D8gp120 = assay: ELISA
CH505.M21D8gp120/293F = assay: ELISA
CH505.M11D8gp120/293F = assay: ELISA
CH505.M9D8gp120/293F = assay: ELISA
[11] = biological target: T7, CH505.TF mutant gp120 M20 (HIV-1); assay: ELISA
T7 construct: domain: gp120

CH505.M5D8gp120293F = assay: ELISA
CH505.TF mutant gp120 M8 = biological target: T8, CH505.TF mutant gp120 M8 (HIV-1); assay: ELISA
T8 construct: domain: gp120

CH505.M10D8gp120 = assay: ELISA
CH505.M7D8gp120/293F = assay: ELISA
[12] = biological target: T9, HIV-1 CH505 transmitted/founder gp120 Env (HIV-1); assay: competition ELISA, blocking of CH106 binding to gp120
T9 construct: domain: gp120; also called CH505.TF gp120; CH505 TF gp120 Env

SSA [13] = biological target: T1, SSA; assay: AtheNA, Ab 12.5 ug/ml
Sm (Smith antigen) [14] = biological target: T2, Sm (Smith antigen); assay: AtheNA, Ab 12.5 ug/ml
RNP (ribonucleoprotein) [15] = biological target: T3, RNP (ribonucleoprotein); assay: AtheNA, Ab 12.5 ug/ml
Histones [16] = biological target: T4, Histones; assay: AtheNA, Ab 12.5 ug/ml
Scl-70 [17] = biological target: T5, Scl-70; assay: AtheNA, Ab 12.5 ug/ml
CH505w030.20D8gp120/293F = biological target: T10, CH505w030.20D8gp120/293F; assay: ELISA
T10 construct: also called CH505w30.20 gp120

CH505.w30.12D8gp120 = biological target: T11, CH505.w30.12D8gp120; assay: ELISA
T11 construct: also called CH505w30.12 gp120

SSA [18] = biological target: T1, SSA; assay: AtheNA, Ab 50 ug/ml
Sm (Smith antigen) [19] = biological target: T2, Sm (Smith antigen); assay: AtheNA, Ab 50 ug/ml
Histones [20] = biological target: T4, Histones; assay: AtheNA, Ab 50 ug/ml
CH0505_CON D7gp120/293i = assay: ELISA
CH505w020.14D8gp120 = biological target: T12, CH505w020.14D8gp120; assay: ELISA
T12 construct: also called CH505w20.14 gp120

B1: CH236 (antibody, V domains shown)
VH: QVQLVQSGAAVKRPGASVTISCRASGYTFTTYYIHWVRQAPGQRLELMGMIDPSRGRTDYAQKFQGRVTMSRDTSTSTLYMELRSLRPDDTALYYCVRNVGTEGSLLHYDYWGQGTLVTVSS
VL: EIVLTQSPATLSVSPGERVTLSCRASQSVRNNLAWYRQKRGQAPRLLIYGASTRATGIPARFSGSGSGTEFTLTISSMQSEDFAVYYCQQYNNWWTFGQGTKVEIK
notes: also called CH236_4A/293i
B1 was tested, and the AtheNA signal (SSA [1]) was 44 relative luminescence units, the AtheNA signal (Sm (Smith antigen) [2]) was 184 relative luminescence units and the AtheNA signal (RNP (ribonucleoprotein) [3]) was 40 relative luminescence units. The AtheNA signal (Histones [4]) was 154 relative luminescence units, the AtheNA signal (Scl-70 [5]) was 31 relative luminescence units and the AtheNA signal (SSA [6]) was 224 relative luminescence units. The AtheNA signal (Sm (Smith antigen) [7]) was 165 relative luminescence units, the AtheNA signal (RNP (ribonucleoprotein) [8]) was 69 relative luminescence units and the AtheNA signal (Histones [9]) was 193 relative luminescence units. For the same binder, the AtheNA signal (Scl-70 [10]) was 62 relative luminescence units, the LogAUC (CH505w136.B18D8gp120) was 3.51 and the LogAUC (CH505.TF mutant gp120 M6) was 6.31. For the same binder, the LogAUC (CH505.M19D8gp120) was 1.54, the LogAUC (CH505.M21D8gp120/293F) was 0 and the LogAUC (CH505.M11D8gp120/293F) was 1.43. For the same binder, the LogAUC (CH505.M9D8gp120/293F) was 0, the LogAUC [11] was 0 and the LogAUC (CH505.M5D8gp120293F) was 7.27. It also gave a LogAUC (CH505.TF mutant gp120 M8) of 0, a LogAUC (CH505.M10D8gp120) of 6.07 and a LogAUC (CH505.M7D8gp120/293F) of 0. The IC50 [12] was 82.2 µg/mL, the AtheNA signal (SSA [13]) was 185 relative luminescence units and the AtheNA signal (Sm (Smith antigen) [14]) was 258 relative luminescence units. The AtheNA signal (RNP (ribonucleoprotein) [15]) was 78 relative luminescence units, the AtheNA signal (Histones [16]) was 234 relative luminescence units and the AtheNA signal (Scl-70 [17]) was 50 relative luminescence units. The LogAUC (CH505w030.20D8gp120/293F) was 6.23, the LogAUC (CH505.w30.12D8gp120) was 0.95 and the AtheNA signal (SSA [18]) was 177 relative luminescence units. For the same binder, the AtheNA signal (Sm (Smith antigen) [19]) was 128 relative luminescence units, the AtheNA signal (Histones [20]) was 138 relative luminescence units and the LogAUC (CH0505_CON D7gp120/293i) was 6.89. For the same binder, the LogAUC (CH505w020.14D8gp120) was 6.72.
